US20220096653A1, “CONJUGATE COMPRISING LIGAND AND CEACAM5 ANTIBODY FAB FRAGMENT” (ASTELLAS PHARMA INC., priority 2019, published 2022)

T1: CEACAM5 (R&D Systems, 4128-CM-050) (human, UniProt P06731 35-685)
T1 construct: Immobilised on the ELISA plate; also called human CEACAM5
T1 sequence (looked up): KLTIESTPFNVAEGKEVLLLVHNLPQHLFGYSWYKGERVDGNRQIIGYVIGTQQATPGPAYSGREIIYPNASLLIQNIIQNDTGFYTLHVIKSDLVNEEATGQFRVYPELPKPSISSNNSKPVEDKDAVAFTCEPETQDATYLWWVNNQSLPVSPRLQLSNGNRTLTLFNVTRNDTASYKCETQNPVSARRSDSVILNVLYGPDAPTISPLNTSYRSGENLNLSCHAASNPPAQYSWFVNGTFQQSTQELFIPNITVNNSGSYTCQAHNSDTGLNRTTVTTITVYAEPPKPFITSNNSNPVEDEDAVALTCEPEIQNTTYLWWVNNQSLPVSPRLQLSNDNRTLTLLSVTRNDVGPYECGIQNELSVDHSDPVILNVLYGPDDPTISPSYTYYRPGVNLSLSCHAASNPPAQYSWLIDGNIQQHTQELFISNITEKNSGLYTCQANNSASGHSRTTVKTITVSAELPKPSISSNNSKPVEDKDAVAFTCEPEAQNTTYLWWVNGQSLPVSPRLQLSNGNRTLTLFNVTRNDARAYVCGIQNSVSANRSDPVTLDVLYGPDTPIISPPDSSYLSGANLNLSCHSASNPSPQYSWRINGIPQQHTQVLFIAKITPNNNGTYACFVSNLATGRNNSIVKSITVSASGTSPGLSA


These binders were tested against T1, CEACAM5 (R&D Systems, 4128-CM-050) (assay: ELISA on immobilised CEACAM5, 4-parameter fit, duplicate).
Description: Each anti-human CEACAM5 antibody Fab fragment conjugate prepared in Example 2 was subjected to ELISA to evaluate the binding activity thereof to CEACAM5. In the present test, a phosphate buffer (Nacalai Tesque Inc., 0.1 mol/L-Phosphate Buffer Solution (pH 7.2)) prepared to 10 mM by diluting 10-fold with distilled water was used as a solvent for an antigen immobilization liquid, and 20×PBS/Tween 20 Buffer (Thermo Fisher Scientific Inc., 28352) diluted 20-fold with distilled water was used as a wash liquid. In addition, for bovine serum albumin (BSA) used in the present test, 30% Bovine Serum Albumin solution (Sigma-Aldrich, Inc., A9576-50ML) was added in an appropriate proportion for use. CEACAM5 (R&D Systems, 4128-CM-050) was diluted with a 10 mM phosphate buffer (pH 7.2) to 0.1 μg/mL, and added to a Nunc MaxiSorp White 384 plate (Nunc, 4603272) at 30 μL per well, and the plate was incubated overnight at 4° C. for immobilization. The CEACAM5 immobilization liquid was removed by reverse centrifugation, and then blocking was carried out by adding a PBS/Tween 20 buffer containing 5.0% BSA. Thereafter, the blocking solution was removed by reverse centrifugation, a solution of each CEACAM5 antibody Fab² fragment conjugate described above or a Fab² fragment having no labeling portion (PB009-01) as a control at about 10000 ng/mL was diluted in 14 steps by 3-fold dilution using a PBS/Tween 20 buffer containing 1.0% BSA, and 30 μL was added per well and incubated at room temperature for 60 minutes. The plate was washed 3 times with a PBS/Tween 20 buffer, and Horseradish Peroxidase (HRP)-labeled goat anti-human IgG (H+L chain) antibody (MBL Life Sciences, 206) diluted 1000-fold using a PBS/Tween 20 buffer containing 5.0% BSA was added at 30 μL per well and incubated at room temperature for 30 minutes. The plate was washed 3 times with a PBS/Tween 20 buffer, and ECL Prime Western Blotting DETECTION Reagent (GE Healthcare, RPN2232) as a substrate was added at 30 μL per well. The substrate was incubated at room temperature for 15 minutes, and then a signal value thereof was measured using an Envision counter (PerkinElmer, Inc.).
The test for each antibody was carried out in duplicate, and an EC₅₀ value was calculated using a 4-parameter logistic curve model.

Row | Binder | EC50 [nM]
1 | [Gd/DOTA-NH-(CH2CH2O)3-CH2-C(═O)-NH-CH2-(1,3-Ph)-C(═O)-Met-Gly-Lys*-Z2(#S)]p-Fab^2 (Fab, V domains shown, labeling may sit on this chain; sites not stated; labeling portion (MW 1380) bound via 2-iminothiolane-treated amino groups of the Fab, sites and chain not stated; 1 per Fab by MS, also called Ex-No 35; Conjugate No. 35) VH: EVQLVESGGGLVQPGGSLRLSCAASGFNIRDTYMHWVRQAPGKGLEWVARIDPANGNSRYVPKFQGRFTISADTSRNTAYLQMNSLRAEDTAVYYCAPFGYYVSDYAMAYWGQGTLVTVSS VL: DIQLTQSPSSLSASVGDRVTITCRAGESVDIFGVGFLHWYQQKPGKAPKLLIYRASNLESGIPSRFSGSGSRTDFTLTISSLQPEDFATYYCQQTNEDPYTFGQGTKVEIKR | 0.43
2 | [Gd/DOTA-[2,5-(1,2,3,4-tetrahydroisoquinoline)]-C(═O)-Met-Gly-Lys*-Z2(#N)]p-Fab^2 (Fab, V domains shown, labeling may sit on this chain; sites not stated; labeling portion (MW 1115) on amino groups of the Fab, sites and chain not stated; 1-2 per Fab by MS, also called Ex-No 33; Conjugate No. 33) VH: EVQLVESGGGLVQPGGSLRLSCAASGFNIRDTYMHWVRQAPGKGLEWVARIDPANGNSRYVPKFQGRFTISADTSRNTAYLQMNSLRAEDTAVYYCAPFGYYVSDYAMAYWGQGTLVTVSS VL: DIQLTQSPSSLSASVGDRVTITCRAGESVDIFGVGFLHWYQQKPGKAPKLLIYRASNLESGIPSRFSGSGSRTDFTLTISSLQPEDFATYYCQQTNEDPYTFGQGTKVEIKR | 0.33
3 | (Y-S1-X)p-Fab^2 with Y Gd/DOTA, S1 -NH-(CH2CH2O)3-CH2-C(═O)-NH-CH2-(1,3-Ph)-C(═O)-, X -Gly-Lys*-Z2(#S)- (Fab, V domains shown, labeling may sit on this chain; sites not stated; labeling portion (MW 1248) on amino groups of the Fab, sites and chain not stated; 1-2 per Fab by MS, also called Ex-No 25; conjugate 25) VH: EVQLVESGGGLVQPGGSLRLSCAASGFNIRDTYMHWVRQAPGKGLEWVARIDPANGNSRYVPKFQGRFTISADTSRNTAYLQMNSLRAEDTAVYYCAPFGYYVSDYAMAYWGQGTLVTVSS VL: DIQLTQSPSSLSASVGDRVTITCRAGESVDIFGVGFLHWYQQKPGKAPKLLIYRASNLESGIPSRFSGSGSRTDFTLTISSLQPEDFATYYCQQTNEDPYTFGQGTKVEIKR | 0.32
4 | (Y-S1-X)p-Fab^2 with Y Gd/DOTA, S1 given only as drawing CHEM-US-00151, X -Met-Gly-Lys*-Z2(#N)- (Fab, V domains shown, labeling may sit on this chain; sites not stated; labeling portion (MW 1101) on amino groups of the Fab, sites and chain not stated; 1-2 per Fab by MS, also called Ex-No 34; conjugate 34) VH: EVQLVESGGGLVQPGGSLRLSCAASGFNIRDTYMHWVRQAPGKGLEWVARIDPANGNSRYVPKFQGRFTISADTSRNTAYLQMNSLRAEDTAVYYCAPFGYYVSDYAMAYWGQGTLVTVSS VL: DIQLTQSPSSLSASVGDRVTITCRAGESVDIFGVGFLHWYQQKPGKAPKLLIYRASNLESGIPSRFSGSGSRTDFTLTISSLQPEDFATYYCQQTNEDPYTFGQGTKVEIKR | 0.38
5 | (Y-S1-X)p-Fab^2 with Y Gd/DOTA, S1 - (bond), X -Gly-(naph-Ala)-Lys*-Z2(#S)- (Fab, V domains shown, labeling may sit on this chain; sites not stated; labeling portion (MW 1123) on amino groups of the Fab, sites and chain not stated; 1-2 per Fab by MS, also called Ex-No 31; conjugate 31) VH: EVQLVESGGGLVQPGGSLRLSCAASGFNIRDTYMHWVRQAPGKGLEWVARIDPANGNSRYVPKFQGRFTISADTSRNTAYLQMNSLRAEDTAVYYCAPFGYYVSDYAMAYWGQGTLVTVSS VL: DIQLTQSPSSLSASVGDRVTITCRAGESVDIFGVGFLHWYQQKPGKAPKLLIYRASNLESGIPSRFSGSGSRTDFTLTISSLQPEDFATYYCQQTNEDPYTFGQGTKVEIKR | 0.3

More lines, in order of falling EC50, values ahead:

Row | EC50 [nM] | Binder
6 | 0.37 | (Y-S1-X)p-Fab^2 with Y Gd/DOTA, S1 spacer (e), X -Met-Gly-Lys*-Z2(#N)- (Fab, V domains shown, labeling may sit on this chain; sites not stated; labeling portion (MW 1095) on amino groups of the Fab, sites and chain not stated; 1-2 per Fab by MS, also called Ex-No 32; conjugate 32) VH: EVQLVESGGGLVQPGGSLRLSCAASGFNIRDTYMHWVRQAPGKGLEWVARIDPANGNSRYVPKFQGRFTISADTSRNTAYLQMNSLRAEDTAVYYCAPFGYYVSDYAMAYWGQGTLVTVSS VL: DIQLTQSPSSLSASVGDRVTITCRAGESVDIFGVGFLHWYQQKPGKAPKLLIYRASNLESGIPSRFSGSGSRTDFTLTISSLQPEDFATYYCQQTNEDPYTFGQGTKVEIKR
7 | 0.3 | (Y-S1-X)p-Fab^2 with Y Gd/DOTA, S1 spacer (d), X -Gly-Lys*-Z2(#N)- (Fab, V domains shown, labeling may sit on this chain; sites not stated; labeling portion (MW 954) on amino groups of the Fab, sites and chain not stated; 1-3 per Fab by MS, also called Ex-No 26; conjugate 26) VH: EVQLVESGGGLVQPGGSLRLSCAASGFNIRDTYMHWVRQAPGKGLEWVARIDPANGNSRYVPKFQGRFTISADTSRNTAYLQMNSLRAEDTAVYYCAPFGYYVSDYAMAYWGQGTLVTVSS VL: DIQLTQSPSSLSASVGDRVTITCRAGESVDIFGVGFLHWYQQKPGKAPKLLIYRASNLESGIPSRFSGSGSRTDFTLTISSLQPEDFATYYCQQTNEDPYTFGQGTKVEIKR
8 | 0.18 | (Y-S1-X)p-Fab^2 with Y Gd/DOTA, S1 -NH-CH2-(1,4-Ph)-C(═O)-, X -Met-Gly-Lys*-Z2(#S)- (Fab, V domains shown, labeling may sit on this chain; sites not stated; labeling portion (MW 1190) on amino groups of the Fab, sites and chain not stated; 1-3 per Fab by MS, also called Ex-No 38; conjugate 38) VH: EVQLVESGGGLVQPGGSLRLSCAASGFNIRDTYMHWVRQAPGKGLEWVARIDPANGNSRYVPKFQGRFTISADTSRNTAYLQMNSLRAEDTAVYYCAPFGYYVSDYAMAYWGQGTLVTVSS VL: DIQLTQSPSSLSASVGDRVTITCRAGESVDIFGVGFLHWYQQKPGKAPKLLIYRASNLESGIPSRFSGSGSRTDFTLTISSLQPEDFATYYCQQTNEDPYTFGQGTKVEIKR
